Data on one molecule can be found in US20210179726A1 (DINGFU BIOTARGET, published 2021).

In experiment [1] the target is T1, hOX40-EGFP on HEK293 cells (human, UniProt P43489 29-277).
T1 construct: EGFP fusion expressed on transfected HEK293 cells; also called human OX40
T1 sequence (looked up): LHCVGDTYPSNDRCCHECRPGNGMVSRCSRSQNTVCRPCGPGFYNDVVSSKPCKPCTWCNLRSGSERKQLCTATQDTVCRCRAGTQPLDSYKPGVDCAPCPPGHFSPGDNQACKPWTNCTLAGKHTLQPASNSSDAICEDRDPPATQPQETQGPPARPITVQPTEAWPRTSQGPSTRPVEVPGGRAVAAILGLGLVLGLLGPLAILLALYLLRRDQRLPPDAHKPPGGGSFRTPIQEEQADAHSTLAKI
Nature of the experiment: FACS on hOX40-EGFP HEK293 cells. As to the method:
(§1) The hCD137-EGFP, hOX40-EGFP and hGITR-EGFP cells as described in Example 1 were washed twice in PBS, 10 μg/ml of each chimeric antibody as prepared in Example 3 (m2E7, m2B8, m4H3, m3E7, m1A8, m4G1, m2G3, m2F11 and m3B8) was added to each type of cells and incubated at 4° C. for 30 min. Then it was washed twice with PBS, anti-human Ig-APC (Jackson ImmunoResearch Laboratories, Cat #109-135-098) was added and were incubated at 4° C. for 30 min, washed twice with PBS and resuspended in 300 μl PBS. In FIG. 2, NC represents negative control (PBS), a-hlg-APC represents secondary antibody only, the other panels represent results obtained with each of the corresponding clone, respectively.

Experiment [2] deals with T2, hCD137-EGFP on HEK293 cells (human, UniProt Q07011 24-255).
T2 construct: EGFP fusion expressed on transfected HEK293 cells; also called human CD137
Description: FACS on hCD137-EGFP HEK293 cells. As to the method:
as §1

Experiment [3] concerns the target T3, hCD27-EGFP on HEK293 cells (human, UniProt P26842 20-260).
T3 construct: EGFP fusion expressed on transfected HEK293 cells; also called CD27-EGFP cells; cell surface CD27
T3 sequence (looked up): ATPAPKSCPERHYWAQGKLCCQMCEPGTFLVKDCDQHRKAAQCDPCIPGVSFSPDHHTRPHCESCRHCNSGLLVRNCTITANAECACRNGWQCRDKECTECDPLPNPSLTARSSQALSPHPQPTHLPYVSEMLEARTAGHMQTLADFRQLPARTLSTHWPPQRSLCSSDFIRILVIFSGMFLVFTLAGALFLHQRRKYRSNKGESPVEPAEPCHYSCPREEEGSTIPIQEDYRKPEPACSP
Description: FACS on CD27-EGFP HEK293 cells, 10 µg/ml antibody. On the procedure: 5×10⁵ CD27-EGFP cells prepared in Example 1 were washed twice in PBS, 10 μg/ml of each chimeric antibody prepared in Example 3 (m2E7, m2B8, m4H3, m3E7, m1A8, m4G1, m2G3, m2F11 and m3B8) was added to the cells and incubated at 4° C. for 30 min. Then it was washed twice in PBS, anti-human Ig-APC (Jackson ImmunoResearch Laboratories, Cat #109-135-098) was added, incubated at 4° C. for 30 min, washed twice with PBS and resuspended in 300 μl PBS. In FIG. 1, NC represents negative control (PBS), a-hlg-APC represents secondary antibody only, the other panels represent results obtained with each of the corresponding clone, respectively.

Experiment [4] concerns the target T4, hGITR-EGFP on HEK293 cells (human, UniProt Q9Y5U5 26-241).
T4 construct: EGFP fusion expressed on transfected HEK293 cells; also called human GITR
T4 sequence (looked up): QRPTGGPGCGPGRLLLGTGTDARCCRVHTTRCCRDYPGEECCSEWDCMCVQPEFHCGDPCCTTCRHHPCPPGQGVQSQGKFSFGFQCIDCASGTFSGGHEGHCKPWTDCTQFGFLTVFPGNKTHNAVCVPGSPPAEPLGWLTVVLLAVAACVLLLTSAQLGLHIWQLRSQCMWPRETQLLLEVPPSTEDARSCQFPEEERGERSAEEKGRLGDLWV
Nature of the experiment: FACS on hGITR-EGFP HEK293 cells. On the procedure:
as §1

T2 sequence (Q07011 24-255): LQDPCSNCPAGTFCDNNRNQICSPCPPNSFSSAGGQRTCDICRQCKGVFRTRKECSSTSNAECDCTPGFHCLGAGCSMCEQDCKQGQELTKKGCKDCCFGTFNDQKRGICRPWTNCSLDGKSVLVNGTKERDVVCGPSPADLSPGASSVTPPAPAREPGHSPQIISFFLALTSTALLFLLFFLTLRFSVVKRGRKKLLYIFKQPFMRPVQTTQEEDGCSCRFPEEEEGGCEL

B1: m3E7 (antibody, human IgG1, V domains shown)
VH: QIQLVQSGPELKKPGETVKISCKASGYTFTTYGMSWVKQAPGKGLHWMGWINTHSGAPTYVDDFKGRFAFSLETSASTAFLQINNLINEDTATYFCAREGDALDYWGQGTSVTVSS
VL: DIVMTQTTAIMSAFPGEKVTMTCSASSSVSYMHWYQQKSGTSPKRWIYDTSKLASGVPVRFSGSGSGTSYSLTISNMEAEDAATYYCQQWSRNPPFTFGAGTKLELK
notes: Chimeric antibody: mouse VH/VL on human IgG1 / human kappa constant regions; also called clone 3E7; not shown: human IgG1 constant region, UniProt P01857
In the case of B1, the binding result is given as “no binding (tested: 10 µg/ml)” in experiment [1], “no binding (tested: 10 µg/ml)” in experiment [2], “binds” in experiment [3] and “no binding (tested: 10 µg/ml)” in experiment [4].
